Reference: patent US20100196398A1 (AstraZeneca / MedImmune, published 2010)

T1: human CD105 (human, UniProt P17813 26-658)
T1 construct: whole, on cells; Target as carried by HUVEC cells in the FACS assays; also called endoglin; END
T1 sequence (looked up): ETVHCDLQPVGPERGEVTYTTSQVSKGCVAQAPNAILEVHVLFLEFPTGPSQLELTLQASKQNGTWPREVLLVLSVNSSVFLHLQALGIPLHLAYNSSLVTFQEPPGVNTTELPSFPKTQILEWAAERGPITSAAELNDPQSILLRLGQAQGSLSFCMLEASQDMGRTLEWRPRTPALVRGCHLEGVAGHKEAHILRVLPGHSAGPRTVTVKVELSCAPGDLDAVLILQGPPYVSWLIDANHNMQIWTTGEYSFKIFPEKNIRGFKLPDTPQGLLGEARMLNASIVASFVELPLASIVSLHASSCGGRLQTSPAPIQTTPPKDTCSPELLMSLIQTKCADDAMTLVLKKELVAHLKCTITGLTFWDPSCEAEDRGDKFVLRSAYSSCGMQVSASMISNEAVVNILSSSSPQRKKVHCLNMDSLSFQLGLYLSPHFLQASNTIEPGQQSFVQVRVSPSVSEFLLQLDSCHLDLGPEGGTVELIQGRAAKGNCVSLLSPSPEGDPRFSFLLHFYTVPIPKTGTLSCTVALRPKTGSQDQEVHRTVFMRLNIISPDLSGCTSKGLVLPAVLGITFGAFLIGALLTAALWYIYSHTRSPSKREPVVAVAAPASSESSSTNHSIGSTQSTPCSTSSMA


Experiments:
human CD105 [1] = molecular target: T1, human CD105; assay: FACS KD determination on HUVEC cells, 4° C., nonlinear fit of geometric mean fluorescence
Experimental: The affinity of the anti-CD105 antibodies was determined by FACS. […] Cells were kept on ice. Purified antibodies were serially diluted in filtered 1×PBS (2×) across 11 wells in 96-well plates. The twelfth well in each row contained buffer only. Cells and 1×PBS were added to each mAb well such that the final volume was 30 μL/well and each well contained approximately 100,000 cells. Plates were placed on a plate shaker for 3 hours at 4° C., then spun and washed 3 times with PBS. A fluorochrome-labeled secondary goat α-human polyclonal antibody was added to each well in a 200 μL volume. Plates were then incubated for 40 minutes at 4° C., then spun and washed 3 times with PBS.
The Geometric Mean Fluorescence (GMF) of 10,000 cells for each mAb concentration was determined using a FACSCalibur instrument. A nonlinear plot of GMF as a function of molecular mAb concentration was fit using Scientist software using the equation:
In the above equation, F=Geometric mean fluorescence, LT=total molecular mAb concentration, P′=proportionality constant that relates arbitrary fluorescence units to bound mAb, and KD=equilibrium dissociation constant. For each mAb an estimate for KD was obtained as P′ and KD were allowed to float freely in the nonlinear analysis.

human CD105 [2] = molecular target: T1, human CD105; assay: FACS competition on HUVEC cells: unlabeled mAb at 50 ug/ml, wash, then FITC-labeled SN6 at 2 ug/ml; blocked antibody: SN6

Row | Binder | Kd (human CD105 [1]) | Max % Bloc(king) of SN6 binding (human CD105 [2])
1 | fully human monoclonal antibody 4.120 (antibody, V domains shown, XenoMouse hybridoma antibody of Campaign 1 (IgG1 and IgG4 strains immunised with soluble CD105); also called mAb 4.120) VH: QVQLQESGPGLVKPSETLSLTCTVSGGSISSYYWSWIRQPAGKGLEWIGRIYTSGSTNYNPSLKSRVTMSVDTSKNQFSLKLSSVTAADTAVYYCARRDIGATIKGFDYWGQGTLVTVSS VL: not shown | 770 pM | 29.4%
2 | fully human monoclonal antibody 4D4 (antibody, V domains shown, XenoMouse hybridoma antibody of Campaign 2 (IgG2 and IgG4 strains); also called 4D4.1) VH: QVQLVESGGGVVQPGRSLRLSCAASGFTFSSYGMHWVRQAPGKGLEWVAVIWYDGSNKYYADSVKGRFTISRDNSKNTLYLQMNSLRAEDTAVYYCARVLGATGGYYYYYGMDVWGQGTTVTVSS VL: not shown | 622 pM | 5.1%
3 | fully human monoclonal antibody 4.37 (antibody, V domains shown, XenoMouse hybridoma antibody of Campaign 1 (IgG1 and IgG4 strains immunised with soluble CD105); also called mAb 4.37; 4.37κ) VH: QVQLVESGGGVVQPGRSLRLSCAASGFTFSDYGMHWVRQAPGKGLEWVAVIWYDGSNKYYADSVKGRFTISRDNSKNTLYLQMNSLRAEDTAVYYCARAAGFYYYYGMDVWGQGTTVTVSS VL: not shown | < 717 pM | 57%
4 | fully human monoclonal antibody 6A6 (antibody, V domains shown, XenoMouse hybridoma antibody of Campaign 2 (IgG2 and IgG4 strains); also called 6A6.2) VH: EVQLLESGGGLVQPGGSLRLSCAASGFTFSSYAMSWVRQAPGKGLEWVSTISGGGHSTYYADSVKGRFTISRDNSKNTLYLQMNSLRAEDTAVYYCARIAPAGPHFDYWGQGTLVTVSS VL: NFMLTQPHSVSESPGKTVTFSCTRSSGSIASNFVQWYQQRPGSSPTTVIYEHNQRPSGVPDRFSGSIDSSSSSASLTISGLKTEDEADYYCQFYDRNSHWVFGGGTKLTVL | < 1150 pM | 95.4%

Results, then the binder that gave them:

Row | Kd (human CD105 [1]) | Max % Bloc(king) of SN6 binding (human CD105 [2]) | Binder
5 | < 149 pM | 96.9% | fully human monoclonal antibody 6B10 (antibody, V domains shown, XenoMouse hybridoma antibody of Campaign 2 (IgG2 and IgG4 strains); also called 6B10.1; mAb 6B10) VH: QEQLVESGGGVVQPGRSLRLSCTASGFTFSNYGIHWVRQAPGKGLEWVTVISYDGSKKYYADSVKGRFTISRDNSKNTLYLQMNSLRAEDTAVYYCARAFSTMVRGVDHWGQGTLVTVSS VL: DIQMTQSPSSLSASVGDRVTITCQASQDIYKSLNWYQQRPGKAPNLLIYDASNLETGVPSRFSGSGSGTDFTFTISSLQPEDFARYFCQQYDNLPLTFGGGTRVEIK
6 | < 748 pM | 9% | fully human monoclonal antibody 10C9 (antibody, V domains shown, XenoMouse hybridoma antibody of Campaign 2 (IgG2 and IgG4 strains); also called 10C9.2) VH: QVQLVESGGGVVQPGRSLRLSCAASGFTFRSYGMHWVRQAPGKGLEWVAVIWYDGSNKYYADSVKGRFTISRDNSKNTLDLQMNSLRAEDTAVYYCARDRIAAARYYNGMDVWGQGTTVTVSS VL: not shown
7 | 338 pM | 29.4% | fully human monoclonal antibody 11H2 (antibody, V domains shown, XenoMouse hybridoma antibody of Campaign 2 (IgG2 and IgG4 strains); also called 11H2.1) VH: QVQLVESGGGVVQPGRSLRLSCAASGFSFSSYGMHWVRQAPGKGLDWVAIIWYDGSYKYYADSVKGRFTISRDNSKNTLSLQMNSLRAEDTAVYYCARDGKYPFDYWGQGTLVTVSS VL: SYVLTQPPSVSVAPGQTARITCGGNNIGSKSVHWYQQKPGQAPVLVVYDDSDRPSGIPERFSGSNSGNTATLTISRVEAGDEADYYCQVWDRSSDHVVFGGGTKLTVL
8 | < 584 pM | 81.9% | fully human monoclonal antibody 9H10 (antibody, V domains shown, XenoMouse hybridoma antibody of Campaign 2 (IgG2 and IgG4 strains immunised with B300.19/human CD105 cells); also called 9H10.2) VH: QVQLVESGGGVVQPGRSLRLSCAASGFAFINYGMHWVRQAPGKGLDWVAVISYDGSNKYYTDSVKGRFTISRDNSKNTLYLQMNSLRAEDTAVYYCARDLMGATLFDNWGQGTLVTVSS VL: SYVLTQPPSVSVAPGQTARISCGGNNIGSKSVHWFQQKPGQAPVLVVYDDSDRPSGIPERFSGSNSGNTATLTISRVEAGDEADYYCQVWDSSSDHVVFGGGTKLTVL
9 | 2300 pM | 20.5% | fully human monoclonal antibody 6B1 (antibody, V domains shown, XenoMouse hybridoma antibody of Campaign 2 (IgG2 and IgG4 strains); also called 6B1.1) VH: QVQLVESGGGVVQPGRSLRLSCAASGFTFSSYGMHWVRQAPGKGLEWVAVIWYDGSNKYYADSVKGRFTISRDNSKNTLYLQMNSLRAEDTAVYYCVRDYSSGWYWGQGTLVTVSS VL: SYELTQPPSVSVSPGQTARITCSGDALPKKYAYWYQQKSGQAPVLVIYEDSKRPSGIPERFSGSSSGTMATLTISGAQVEDEADYSCYSIDSSVNHVVFGGGTKLTVL
